Assay results taken from patent US20140370021A1 (Xencor, published 2014).

Target: T1, extracellular region of human V158 FcγRIIIa fused with glutathione S-transferase (GST) (human, UniProt P08637 17-208)
T1 construct: extracellular domain; also called human Val158 FcγRIIIa; not shown: glutathione S-transferase (GST) tag
Experiment: AlphaScreen competition as in Example 2 (biotinylated WT antibody on donor beads, GST-tagged human V158 FcγRIIIa on acceptor beads); Fc variants in the context of rituximab

T1 sequence (P08637 17-208 F176V): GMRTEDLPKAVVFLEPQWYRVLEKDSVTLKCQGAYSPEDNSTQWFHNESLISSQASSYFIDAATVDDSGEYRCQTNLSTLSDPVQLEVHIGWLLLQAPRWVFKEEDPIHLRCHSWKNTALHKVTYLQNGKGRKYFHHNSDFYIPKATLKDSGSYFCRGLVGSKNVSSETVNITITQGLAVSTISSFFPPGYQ

B1: V264I (antibody)
heavy: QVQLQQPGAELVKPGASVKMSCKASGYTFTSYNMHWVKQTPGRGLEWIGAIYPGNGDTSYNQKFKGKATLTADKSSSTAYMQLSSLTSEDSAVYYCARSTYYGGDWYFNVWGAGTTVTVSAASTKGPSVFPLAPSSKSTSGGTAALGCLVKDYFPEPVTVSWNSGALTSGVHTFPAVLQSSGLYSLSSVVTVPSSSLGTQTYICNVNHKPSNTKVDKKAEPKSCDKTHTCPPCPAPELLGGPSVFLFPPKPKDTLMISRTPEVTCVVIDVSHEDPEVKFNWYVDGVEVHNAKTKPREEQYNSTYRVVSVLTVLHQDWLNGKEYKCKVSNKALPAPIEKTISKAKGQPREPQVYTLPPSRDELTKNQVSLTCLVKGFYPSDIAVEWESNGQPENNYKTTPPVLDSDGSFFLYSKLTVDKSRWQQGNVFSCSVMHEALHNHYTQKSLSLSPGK
light: QIVLSQSPAILSASPGEKVTMTCRASSSVSYIHWFQQKPGSSPKPWIYATSNLASGVPVRFSGSGSGTSYSLTISRVEAEDAATYYCQQWTSNPPTFGGGTKLEIKRTVAAPSVFIFPPSDEQLKSGTASVVCLLNNFYPREAKVQWKVDNALQSGNSQESVTEQDSKDSTYSLSSTLTLSKADYEKHKVYACEVTHQGLSSPVTKSFNRGEC
modifications: N297 glycan, not carried by the letters.
notes: also called rituximab V264I; copies: 2 + 2
- IC50 (read off the curve): ~5 nM

B2: rituximab V264I/I332E (antibody, human IgG1, kappa)
heavy: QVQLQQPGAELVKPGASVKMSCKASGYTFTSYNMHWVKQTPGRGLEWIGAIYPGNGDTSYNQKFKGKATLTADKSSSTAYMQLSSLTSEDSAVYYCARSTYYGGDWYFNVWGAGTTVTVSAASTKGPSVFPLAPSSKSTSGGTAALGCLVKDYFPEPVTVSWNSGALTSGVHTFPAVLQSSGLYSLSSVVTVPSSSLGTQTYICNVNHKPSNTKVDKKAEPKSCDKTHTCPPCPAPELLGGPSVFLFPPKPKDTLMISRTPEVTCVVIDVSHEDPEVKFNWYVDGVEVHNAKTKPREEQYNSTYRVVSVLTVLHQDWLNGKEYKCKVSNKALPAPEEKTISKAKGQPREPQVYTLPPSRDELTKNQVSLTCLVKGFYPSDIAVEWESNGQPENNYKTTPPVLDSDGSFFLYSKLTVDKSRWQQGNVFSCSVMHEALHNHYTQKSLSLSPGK
light: QIVLSQSPAILSASPGEKVTMTCRASSSVSYIHWFQQKPGSSPKPWIYATSNLASGVPVRFSGSGSGTSYSLTISRVEAEDAATYYCQQWTSNPPTFGGGTKLEIKRTVAAPSVFIFPPSDEQLKSGTASVVCLLNNFYPREAKVQWKVDNALQSGNSQESVTEQDSKDSTYSLSSTLTLSKADYEKHKVYACEVTHQGLSSPVTKSFNRGEC
- IC50 (read off the curve): ~0.4 nM
